Measurements as given in paper PMC11267260, “Atom‐Modified gDNA Enhances Cleavage Activity of TtAgo Enabling Ultra‐Sensitive Nucleic Acid Testing”.

Target: T1, TtAgo (Thermus thermophilus Argonaute) (Thermus thermophilus, UniProt Q746M7 1-685)
T1 sequence: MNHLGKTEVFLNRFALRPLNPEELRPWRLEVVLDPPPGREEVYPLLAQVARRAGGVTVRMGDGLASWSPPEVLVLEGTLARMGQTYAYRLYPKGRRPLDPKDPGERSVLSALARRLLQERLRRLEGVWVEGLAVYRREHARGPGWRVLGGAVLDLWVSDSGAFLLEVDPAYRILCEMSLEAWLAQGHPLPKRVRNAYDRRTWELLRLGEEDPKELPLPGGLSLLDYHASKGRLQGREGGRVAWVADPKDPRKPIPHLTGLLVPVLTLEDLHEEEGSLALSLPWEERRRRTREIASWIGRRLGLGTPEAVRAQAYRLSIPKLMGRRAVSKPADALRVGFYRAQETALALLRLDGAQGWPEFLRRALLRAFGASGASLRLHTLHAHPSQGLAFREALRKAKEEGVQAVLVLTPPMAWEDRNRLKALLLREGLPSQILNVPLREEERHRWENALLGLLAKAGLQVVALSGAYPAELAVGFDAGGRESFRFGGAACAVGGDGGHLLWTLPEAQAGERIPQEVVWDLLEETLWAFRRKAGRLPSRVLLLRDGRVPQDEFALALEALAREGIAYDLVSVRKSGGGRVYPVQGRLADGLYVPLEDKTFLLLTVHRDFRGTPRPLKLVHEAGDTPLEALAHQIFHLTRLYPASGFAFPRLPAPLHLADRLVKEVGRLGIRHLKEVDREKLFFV
Test: EMSA; ternary complex; higher than with C-gDNA; BLI in 1x reaction buffer (composition, pH and temperature not given in the material); EMSA conditions not given
Conditions: protein: recombinant; tags: Ni-column purified; dialyzed with TEV protease (tag not described); guide 1-18 pairs with target 12-29; target overhangs 11 nt 5', 1 nt 3'

B1: F1-gDNA + target (mixed)
DNA 1: CATGCATCGATCAGCTAC
DNA 2: CTGCAGTCGTCGTAGCTGATCGATGCATGC
modifications: 2'-F on C18 of guide
B1: binds.
